Test results from patent publication US20180265572A1 (Bristol-Myers Squibb, published 2018).
Where “and” joins values, the source holds several entries; their conditions need not be identical. Identical values can stand only once.

What was measured:
monkey IGF1R = monkey IGF1R (monkey); assay: method not stated
rat IGF1R = rat IGF1R (rat, UniProt P24062 31-933, limits assumed); assay: method not stated; rat IGF1R
human IGF1R = human IGF1R (human, UniProt P08069 31-932, limits assumed); assay: method not stated; human IGF1R
mouse IGF1R = mouse IGF1R (mouse, UniProt Q60751 31-933, limits assumed); assay: method not stated; mouse IGF1R
[1] = molecular target: VEGFR-2 in nude mice (in vivo) (UniProt P35918 20-1345, limits assumed); assay: cell-based or functional assay
[2] = molecular target: VEGFR-2 in cynomolgus monkeys (in vivo); assay: cell-based or functional assay
human IGF-IR-Fc fusion [3] = molecular target: T1, human IGF-IR-Fc fusion (human, UniProt P08069 31-932); assay: SPR (Biacore), IGF-IR-Fc captured on Protein A
T1 construct: range 1-932; If it counts on the precursor, it includes the signal peptide; also called IGF1R-Fc; not shown: hinge and constant regions of human IgG
From the text: (§1) An alternative method is to capture the IGF—IR-Fc on Protein A. This method was used for calculating the affinity and kinetics of certain versions of the construct 385A08-Fn-V2B-cys (both pegylated and non-pegylated and with or without his tag) from midscale and large scale materials. Specifically, IGF—IR-Fc was captured on Protein A immobilized on a Biacore CM5 sensor chip by amine coupling. VEGFR2-Fc was immobilized directly on a CM5 chip by amine coupling. The affinity and kinetic analysis involved the capture of IGF—IR-Fc on Protein A followed by injection of the tandem adnectin in solution over IGF—IR-Fc and VEGFR2-Fc. The analytical surface was regenerated between samples with glycine pH 1.5. Sensorgrams were obtained at each concentration and were evaluated using Biacore T100 evaluation software to determine the rate constants kₐ (kₒₙ) and kd (koff).

human IGF-IR-Fc fusion [4] = molecular target: T1, human IGF-IR-Fc fusion; assay: SPR (Biacore), IGF1R-Fc captured on Protein A
Description: (§2) Affinity data was also measured from midscale and large scale material, for the pegylated version of the tandem construct 385A08-Fn-V2B-cys (SEQ ID NO: 9, with and without his tag). The specific materials and methods for these calculations are described below.
as §1

VEGFR2-Fc (R&D Systems) [5] = molecular target: T2, VEGFR2-Fc (R&D Systems) (UniProt P35968 20-764); assay: SPR (Biacore), VEGFR2-Fc immobilised directly on a CM5 chip
T2 construct: Bought reagent; not shown: Fc part of the bought fusion; not described

[6] = molecular target: T3, VEGFR-2 (KDR) on transfected cells (UniProt P35968 20-1356, limits assumed); assay: competitive blocking assay on 293:KDR cells; ratio of the IC50 values
T3 construct: whole, on cells; also called Flk-1
Description: (§3) Similarly, the pegylated, his-tagged construct 385A08-Fn-V2B-cys was able to block the interaction of a mono-specific ¹⁰Fn3-based VEGFR-2 binder (Peg-V2Bshort, SEQ ID NO: 28) with VEGFR-2 present on 293:KDR cells. […] In particular, in a Ba/F3 assay (described below), the IC₅₀ for the monomeric, non-pegylated VEGFR2 binder V2Bshort (SEQ ID NO: 28) is approximately 0.1-3 nM whereas the IC₅₀ for the monomeric, non-pegylated VEGFR2 binder having SEQ ID NO: 44 (e.g., with an N-terminal extension) is approximately 8-13 nM. […] Both the R⁺ and 293:KDR cell based competitive blocking assays are described in detail in the materials and methods section below.
(§4) 293:KDR (Sibtech, Brookfield, Conn.) were plated in 96 well plates at a concentration of 25,000 cells per well in DMEM (Invitrogen, Carlsbad, Calif.) containing 10% fetal bovine serum (Hyclone, Logan, Utah). The following day, cells were washed twice in serum free DMEM containing 0.1% BSA (Invitrogen, Carlsbad, Calif.). After the washes, the cells were incubated at 4° C. for 10 minutes in binding buffer (serum free DMEM+0.1% BSA) containing increasing concentrations of VEGFR-2 antagonists or controls. Typical controls included the mono-specific ¹⁰Fn3-based VEGFR2 binder (Peg-V2Bshort, SEQ ID NO: 28) (positive control) or the mono-specific ¹⁰Fn3-based IGF-IR binder (AT580-PEG40, SEQ ID NO: 27) (negative control). […]

human IGF-IR-Fc fusion [7] = molecular target: T1, human IGF-IR-Fc fusion; assay: SPR (Biacore), captured IGF1R-Fc, midscale purified binder
VEGFR2-Fc (R&D Systems) [8] = molecular target: T2, VEGFR2-Fc (R&D Systems); assay: SPR (Biacore), VEGFR2-Fc immobilized directly on the chip
Description: as §2, §1
The functionality of the V2B domain was assessed by evaluating a concentration series of the midscale and large scale purification of the tandem construct 385A08-Fn-V2B (pegylated, and non-pegylated versions, his-tag and non-his-tag versions) vs. VEGFR2-Fc that was directly immobilized on a CM5 chip surface (GE, Piscataway, N.J.). VEGFR2-Fc (R&D Systems, MN) was diluted to 12 ug/mL in 50 mM Acetate pH 5.0 for an immobilization level of ˜1300 RU. Varying concentrations of 385A08-Fn-V2B in the solution phase were monitored for association (2 minutes) and dissociation (10 minutes) kinetics at a flow rate of 50 uL/min. Two 30 second injections of 50 mM glycine pH 1.7 were used to regenerate the surface.

VEGFR2-Fc (R&D Systems) [9] = molecular target: T2, VEGFR2-Fc (R&D Systems); assay: SPR (Biacore), immobilized VEGFR2-Fc, midscale purified binder
[10] = molecular target: T3, VEGFR-2 (KDR) on transfected cells; assay: competitive blocking assay on 293:KDR cells; competitor 200 nM IRDye 800CW-labelled Peg-V2Bshort
Description: as §3, §4

human IGF-IR on cells = molecular target: T4, human IGF-IR on cells (human, UniProt P08069 31-1367); assay: competitive blocking assay on R+ cells overexpressing human IGF-IR; competitor 200 nM IRDye 800CW-labelled AT580-PEG20-AT580
T4 construct: whole, on cells; also called cell surface IGF-IR
Description: Certain tandem constructs were evaluated for their ability to compete with mono-specific IGF-IR and VEGFR-2 binders in vitro.
R⁺, a gift from Renato Baserga (Thomas Jefferson University, Philadelphia, Pa.), is a mouse embryo fibroblast overexpressing human IGF-IR in the context of a deletion in the mouse IGF-IR gene. Cells were plated in 96 well plates at a concentration of 20,000 cells per well in DMEM (Invitrogen, Carlsbad, Calif.) containing 5% calf serum (Hyclone, Logan, Utah). The following day, cells were washed twice in serum free DMEM containing 0.1% BSA (Invitrogen, Carlsbad, Calif.). After the washes, the cells were incubated at 4° C. for 10 minutes in binding buffer (serum free DMEM+0.1% BSA) containing increasing concentrations of IGF-IR antagonists or controls. Typical controls included the mono-specific ¹⁰Fn3-based IGF-IR binder (AT580-PEG40, SEQ ID NO: 27) (positive control) or the mono-specific ¹⁰Fn3-based VEGFR2 binder (Peg-V2Bshort, SEQ ID NO: 28) (negative control). Following this brief exposure to antagonists, R⁺ cells were additionally exposed to 200 nM of a bi-valent ¹⁰Fn3-based IGF-IR binder (AT580-PEG20-AT580, SEQ ID NO: 27) labeled with IRDye 800CW according to the manufacturer instructions (Li-Cor Biosciences, Lincoln, Nebr.). […] The resulting data was analyzed using GraphPad Prism (GraphPad Software, La Jolla, Calif.).

T2 sequence (P35968 20-764 limits assumed): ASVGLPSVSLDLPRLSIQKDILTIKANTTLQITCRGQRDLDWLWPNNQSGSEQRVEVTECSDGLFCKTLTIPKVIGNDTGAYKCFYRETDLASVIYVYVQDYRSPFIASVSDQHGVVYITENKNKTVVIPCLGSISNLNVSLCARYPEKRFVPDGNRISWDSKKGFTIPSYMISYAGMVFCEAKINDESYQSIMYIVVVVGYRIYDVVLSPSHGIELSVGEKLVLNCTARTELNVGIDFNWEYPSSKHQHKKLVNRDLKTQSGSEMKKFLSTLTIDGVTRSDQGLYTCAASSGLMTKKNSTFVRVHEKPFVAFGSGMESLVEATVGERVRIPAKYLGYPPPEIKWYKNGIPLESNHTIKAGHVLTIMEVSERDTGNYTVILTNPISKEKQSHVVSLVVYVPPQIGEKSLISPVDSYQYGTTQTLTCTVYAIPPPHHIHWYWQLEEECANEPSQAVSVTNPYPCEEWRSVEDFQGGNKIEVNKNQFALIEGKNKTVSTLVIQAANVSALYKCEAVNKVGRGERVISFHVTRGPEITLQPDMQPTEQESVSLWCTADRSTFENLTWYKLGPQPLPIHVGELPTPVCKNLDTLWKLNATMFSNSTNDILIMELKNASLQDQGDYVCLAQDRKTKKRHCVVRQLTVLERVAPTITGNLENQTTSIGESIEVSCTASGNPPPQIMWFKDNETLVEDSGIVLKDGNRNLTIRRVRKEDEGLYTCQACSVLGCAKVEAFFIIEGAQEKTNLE
T1 sequence (P08069 31-932 limits assumed, form in doubt): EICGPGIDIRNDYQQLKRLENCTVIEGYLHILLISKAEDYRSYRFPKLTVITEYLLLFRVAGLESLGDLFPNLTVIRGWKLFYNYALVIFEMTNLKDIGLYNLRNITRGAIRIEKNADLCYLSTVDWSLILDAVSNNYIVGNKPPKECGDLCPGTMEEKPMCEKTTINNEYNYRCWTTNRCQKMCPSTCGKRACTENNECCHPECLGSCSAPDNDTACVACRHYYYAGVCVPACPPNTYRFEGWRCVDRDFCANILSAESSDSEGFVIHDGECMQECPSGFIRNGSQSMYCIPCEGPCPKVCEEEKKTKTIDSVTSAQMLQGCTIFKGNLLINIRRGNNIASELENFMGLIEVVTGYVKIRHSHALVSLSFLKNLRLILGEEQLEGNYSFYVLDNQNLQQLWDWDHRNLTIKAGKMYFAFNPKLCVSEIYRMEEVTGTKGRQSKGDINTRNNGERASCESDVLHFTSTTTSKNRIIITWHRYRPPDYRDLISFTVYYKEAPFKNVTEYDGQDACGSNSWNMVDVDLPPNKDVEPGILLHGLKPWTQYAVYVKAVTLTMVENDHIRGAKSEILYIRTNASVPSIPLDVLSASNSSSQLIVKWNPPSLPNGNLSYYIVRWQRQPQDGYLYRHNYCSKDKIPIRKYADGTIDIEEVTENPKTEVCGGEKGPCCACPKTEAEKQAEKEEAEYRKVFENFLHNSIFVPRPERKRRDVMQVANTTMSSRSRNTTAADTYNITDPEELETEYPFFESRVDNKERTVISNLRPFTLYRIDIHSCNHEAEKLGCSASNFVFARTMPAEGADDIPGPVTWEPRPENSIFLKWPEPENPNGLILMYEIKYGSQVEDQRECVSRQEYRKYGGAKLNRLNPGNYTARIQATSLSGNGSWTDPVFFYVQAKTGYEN
T3 sequence (P35968 20-1356 limits assumed): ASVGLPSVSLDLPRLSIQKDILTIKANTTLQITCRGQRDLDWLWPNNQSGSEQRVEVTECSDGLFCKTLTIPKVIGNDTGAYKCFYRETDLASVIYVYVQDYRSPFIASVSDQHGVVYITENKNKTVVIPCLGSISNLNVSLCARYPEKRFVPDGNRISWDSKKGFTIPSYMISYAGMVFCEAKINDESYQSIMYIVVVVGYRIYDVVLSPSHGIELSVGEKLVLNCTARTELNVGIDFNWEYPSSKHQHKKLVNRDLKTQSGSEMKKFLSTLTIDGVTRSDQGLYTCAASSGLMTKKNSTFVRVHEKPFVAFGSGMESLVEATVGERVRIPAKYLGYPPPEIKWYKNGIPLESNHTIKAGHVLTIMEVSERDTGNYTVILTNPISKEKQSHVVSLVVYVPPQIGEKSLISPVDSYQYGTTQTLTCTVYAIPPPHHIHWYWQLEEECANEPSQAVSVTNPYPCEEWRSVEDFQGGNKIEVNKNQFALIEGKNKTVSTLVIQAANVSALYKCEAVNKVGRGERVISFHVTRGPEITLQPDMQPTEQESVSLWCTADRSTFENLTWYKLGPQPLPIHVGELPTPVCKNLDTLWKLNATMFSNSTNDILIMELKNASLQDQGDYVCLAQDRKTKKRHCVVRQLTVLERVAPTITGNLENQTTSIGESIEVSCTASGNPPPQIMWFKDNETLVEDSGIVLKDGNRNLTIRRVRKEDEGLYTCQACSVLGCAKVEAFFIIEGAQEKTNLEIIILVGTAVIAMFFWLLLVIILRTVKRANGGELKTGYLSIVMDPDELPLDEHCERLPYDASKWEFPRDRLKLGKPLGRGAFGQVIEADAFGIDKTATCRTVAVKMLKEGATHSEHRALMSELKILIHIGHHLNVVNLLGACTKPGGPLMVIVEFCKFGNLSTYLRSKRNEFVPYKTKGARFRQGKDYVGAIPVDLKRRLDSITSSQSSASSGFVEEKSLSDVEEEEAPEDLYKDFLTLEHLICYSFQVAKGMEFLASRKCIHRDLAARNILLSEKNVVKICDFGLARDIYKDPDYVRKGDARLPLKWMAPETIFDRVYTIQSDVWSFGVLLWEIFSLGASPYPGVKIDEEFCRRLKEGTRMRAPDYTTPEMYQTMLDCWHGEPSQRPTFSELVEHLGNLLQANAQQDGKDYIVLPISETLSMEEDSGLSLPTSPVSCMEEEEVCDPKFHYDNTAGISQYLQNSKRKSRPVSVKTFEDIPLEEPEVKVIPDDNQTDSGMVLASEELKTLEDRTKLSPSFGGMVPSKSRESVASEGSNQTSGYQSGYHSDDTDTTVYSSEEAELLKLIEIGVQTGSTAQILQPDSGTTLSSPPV
Sequence of VEGFR-2 in nude mice (in vivo) (P35918 20-1345 limits assumed): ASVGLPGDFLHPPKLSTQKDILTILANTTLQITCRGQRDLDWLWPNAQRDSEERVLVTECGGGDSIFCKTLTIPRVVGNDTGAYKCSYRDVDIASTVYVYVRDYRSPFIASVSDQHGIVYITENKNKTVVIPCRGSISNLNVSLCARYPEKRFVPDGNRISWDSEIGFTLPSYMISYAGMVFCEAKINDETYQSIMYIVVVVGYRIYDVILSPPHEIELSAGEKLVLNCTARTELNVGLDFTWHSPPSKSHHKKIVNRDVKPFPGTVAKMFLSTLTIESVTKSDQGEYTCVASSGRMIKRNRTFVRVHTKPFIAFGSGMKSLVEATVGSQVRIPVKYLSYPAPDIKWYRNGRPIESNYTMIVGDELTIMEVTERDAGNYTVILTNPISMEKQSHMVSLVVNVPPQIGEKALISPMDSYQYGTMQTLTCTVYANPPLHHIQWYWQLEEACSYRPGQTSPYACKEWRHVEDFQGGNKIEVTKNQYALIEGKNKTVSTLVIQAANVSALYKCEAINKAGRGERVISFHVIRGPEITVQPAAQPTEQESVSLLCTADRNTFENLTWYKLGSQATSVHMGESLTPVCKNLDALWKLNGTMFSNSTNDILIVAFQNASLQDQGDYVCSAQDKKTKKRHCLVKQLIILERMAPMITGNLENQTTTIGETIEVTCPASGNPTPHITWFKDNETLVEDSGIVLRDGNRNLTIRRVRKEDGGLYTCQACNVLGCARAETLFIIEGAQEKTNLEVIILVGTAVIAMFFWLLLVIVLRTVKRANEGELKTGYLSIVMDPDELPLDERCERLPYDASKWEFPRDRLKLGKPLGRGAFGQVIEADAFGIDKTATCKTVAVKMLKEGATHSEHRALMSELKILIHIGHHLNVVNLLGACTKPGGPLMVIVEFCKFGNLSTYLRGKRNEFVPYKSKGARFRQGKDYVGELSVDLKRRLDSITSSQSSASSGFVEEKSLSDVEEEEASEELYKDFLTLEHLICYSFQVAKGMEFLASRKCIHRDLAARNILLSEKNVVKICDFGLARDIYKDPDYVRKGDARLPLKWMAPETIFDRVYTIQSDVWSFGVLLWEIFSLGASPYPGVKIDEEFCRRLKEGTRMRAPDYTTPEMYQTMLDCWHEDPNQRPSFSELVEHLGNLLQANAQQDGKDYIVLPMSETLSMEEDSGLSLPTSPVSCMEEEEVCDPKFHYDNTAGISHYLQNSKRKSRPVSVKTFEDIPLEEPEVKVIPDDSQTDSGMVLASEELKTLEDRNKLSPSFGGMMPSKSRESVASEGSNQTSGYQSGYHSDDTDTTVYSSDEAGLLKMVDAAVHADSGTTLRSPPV
Sequence of human IGF1R (P08069 31-932 limits assumed): as the sequence (P08069 31-932 limits assumed, form in doubt) above

B1: 385A08-Fn-V2B-cys (with Peg) (designed binder)
chain: MGVSDVPRDLEVVAATPTSLLISWSARLKVARYYRITYGETGGNSPVQEFTVPKNVYTATISGLKPGVDYTITVYAVTRFRDYQPISINYRTEIDKPSTSTSTVSDVPRDLEVVAATPTSLLISWRHPHFPTRYYRITYGETGGNSPVQEFTVPLQPPTATISGLKPGVDYTITVYAVTDGRNGRLLSIPISINYRTEIDKPCQ
modifications: PEG on the single cysteine at position 203
Q: How did the Kd (monkey IGF1R) turn out when B1 was run?
A: 0.213 nM

Q: What about the Kd (rat IGF1R) of the same binder?
A: 92 nM

Q: And the Kd (human IGF1R)?
A: 0.277 nM

Q: What about the Kd (mouse IGF1R) of the same binder?
A: 86 nM

B2: pegylated, his-tagged 385A08-Fn-V2B-cys (designed binder)
chain: MGVSDVPRDLEVVAATPTSLLISWSARLKVARYYRITYGETGGNSPVQEFTVPKNVYTATISGLKPGVDYTITVYAVTRFRDYQPISINYRTEIDKPSTSTSTVSDVPRDLEVVAATPTSLLISWRHPHFPTRYYRITYGETGGNSPVQEFTVPLQPPTATISGLKPGVDYTITVYAVTDGRNGRLLSIPISINYRTEIDKPCQHHHHHH
modifications: 40 kD PEG on the single cysteine at position 203 (linear PEG in paragraph 246; type of PEG not stated in Example 6)
notes: also called 385A08-Fn-V2B-cys (with PEG and his-tag); linear pegylated, his-tagged 385A08-Fn-V2B-cys
Q: How did the “plasma IC50, indirect-response PD model, nude mice bearing the Rh41 tumor” value [1] turn out when B2 was run?
A: 13800 nM

Q: What about the “plasma IC50 (grand mean), PK/PD model, monkeys” value [2] of the same binder?
A: 228 nM

Q: And the Kd (human IGF-IR-Fc fusion [3])?
A: 1.2 nM

Q: And the Kd (human IGF-IR-Fc fusion [4])?
A: 0.831 nM and 0.465 nM and 0.857 nM

Q: And the koff (human IGF-IR-Fc fusion [4])?
A: 0.00025 s⁻¹ and 0.000223 s⁻¹ and 0.000238 s⁻¹

Q: What about the kon (human IGF-IR-Fc fusion [4]) of the same binder?
A: 299000 M⁻¹ s⁻¹ and 480000 M⁻¹ s⁻¹ and 277000 M⁻¹ s⁻¹

Q: What about the Kd (VEGFR2-Fc (R&D Systems) [5]) of the same binder?
A: 14 nM

Q: What about the “fold difference in activity against Peg-V2Bshort” value [6] of the same binder?
A: 7 fold

Q: And the koff (human IGF-IR-Fc fusion [7])?
A: 0.000233 s⁻¹

Q: What about the kon (human IGF-IR-Fc fusion [7]) of the same binder?
A: 200000 M⁻¹ s⁻¹

Q: And the Kd (VEGFR2-Fc (R&D Systems) [8])?
A: 11 nM and 5.96 nM and 12.6 nM

Q: And the koff (VEGFR2-Fc (R&D Systems) [8])?
A: 9.5e-05 s⁻¹ (2×) and 0.00013 s⁻¹

Q: What about the kon (VEGFR2-Fc (R&D Systems) [8]) of the same binder?
A: 8600 M⁻¹ s⁻¹ and 21800 M⁻¹ s⁻¹ and 7530 M⁻¹ s⁻¹

Q: And the koff (VEGFR2-Fc (R&D Systems) [9])?
A: 0.000149 s⁻¹

Q: And the kon (VEGFR2-Fc (R&D Systems) [9])?
A: 10600 M⁻¹ s⁻¹

Q: What about the IC50 [10] of the same binder?
A: ~140 nM

Q: And the IC50 (human IGF-IR on cells)?
A: 900 nM
